The text below walks through data of EP1132405A1 (Takeda Chemical Industries, Ltd., dated 2001).

The target in the assay is rat cerebellum-derived G protein-coupled receptor protein rOT7T022L (rat, UniProt Q9EP86 1-432). Briefly: cell-based or functional assay.

Ends that are not written are not given here.

rat cerebellum-derived G protein-coupled receptor protein rOT7T022L, sequence (Q9EP86 whole entry, form in doubt): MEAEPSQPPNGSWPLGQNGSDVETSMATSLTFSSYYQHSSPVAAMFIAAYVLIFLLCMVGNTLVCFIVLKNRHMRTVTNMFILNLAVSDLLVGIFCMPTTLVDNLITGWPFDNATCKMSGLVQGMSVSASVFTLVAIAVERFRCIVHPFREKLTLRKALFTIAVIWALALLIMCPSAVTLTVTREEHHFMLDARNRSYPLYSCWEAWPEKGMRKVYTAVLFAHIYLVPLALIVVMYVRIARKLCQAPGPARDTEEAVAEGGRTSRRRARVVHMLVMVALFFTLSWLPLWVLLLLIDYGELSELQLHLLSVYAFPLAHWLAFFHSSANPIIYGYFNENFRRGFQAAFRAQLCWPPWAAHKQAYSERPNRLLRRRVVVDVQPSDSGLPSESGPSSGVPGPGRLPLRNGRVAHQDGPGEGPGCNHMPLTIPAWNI

As for MPHSFANLPLRF-NH2 [peptide MPHSFANLPLRFamide (Met-Pro-His-Ser-Phe-Ala-Asn-Leu-Pro-Leu-Arg-Phe-NH2)], the “IC50 of cAMP production suppression (forskolin-stimulated, cAMP EIA)” value came to 0.5 nM.
